How the values were obtained:
[1] = biological target: T1, recombinant human ICAM-1 (human, UniProt P05362 28-480); assay: SPR (Biacore 3000), ICAM-1 captured on SA chip, monomeric VHH injected, 25 C
T1 construct: Bought recombinant protein; In SPR it was captured on an SA sensor chip; also called intercellular adhesion molecule 1; CD54
Method: Three clones (5-5, 11-4, and 34-1) obtained in Example 4 were individually passed through size exclusion columns, Superdex 75 (GE Healthcare) in 10 mM HEPES, pH 7.4, containing 150 mM NaCl, 3 mM EDTA; monomeric sdAb fractions were collected and protein concentrations were determined by measuring A₂₈₀. SPR analyses were performed with Biacore 3000 instrument (GE Healthcare). All measurements were carried out at 25° C. in 10 mM HEPES, pH 7.4, containing 150 mM NaCl, 3 mM EDTA and 0.005% surfactant P20 (GE Healthcare). Approximately 700-900 RUs of the recombinant ICAM-1 was captured on SA sensor chip (GE Healthcare) at a flow rate of 5 μl/min. Various concentration of the monomeric VHH were injected over the ICAM-1 surface, using a SA surface as a reference, at a flow rate of 40 μl/min. Surfaces were generated by washing with running buffer. Data were analysed with BIAevaluation 4.1 software.

[2] = biological target: T2, mouse ICAM-1 in vivo (vasculature and atherosclerotic plaques of ApoE KO mice) (mouse, UniProt P13597 28-537); assay: in vivo near-infrared optical imaging of ApoE KO and control mice after injection of Cy5.5-labelled sdAb
T2 construct: whole, on cells; Endogenous protein in the living animal; also called ICAM-1 receptor
Method: Anti-ICAM-1 antibodies were labelled with Cy5.5 succimidyl ester using methods recommended by the manufacturer (GE Healthcare). […] The presence of plaques in the aorta of atherosclerotic mice (Example 6) was visualized monthly via tail vein injection of 50 μg of anti-ICAM-1 sdAb using non-invasive in vivo optical imaging. In vivo imaging studies were performed using a small-animal time-domain eXplore Optix MX2 pre-clinical imager (Advanced Research Technologies, Montreal, QC) at 4, 24, 48, and 72 h after injection. For imaging, mice were first anesthetized with isofluorane, and then positioned on an animal stage in a chamber that allows for maintenance of gaseous anesthesia. A pre-injection scan was routinely performed to determine baseline fluorescence level. At the end of the study, animals were euthanized and perfused, organs were removed and imaged. […] The fluorescence emission at 700 nm was collected by a highly sensitive time-correlated single photon counting system and detected through a fast photomultiplier tube. The data were recorded as temporal point-spread functions (TPSF) and the images were reconstructed as fluorescence concentration maps using ART Optix Optiview analysis software 2.0 (Advanced Research Technologies, Montreal, QC).

[3] = biological target: T3, rat ICAM-1 on LPS-induced rat brain endothelial cells (SV-RBEC) (rat, UniProt Q00238 28-545); assay: immunofluorescence with Cy5.5-labelled sdAb on fixed SV-RBEC cells with or without LPS
T3 construct: whole, on cells; Endogenous protein on fixed cells
T3 sequence (looked up): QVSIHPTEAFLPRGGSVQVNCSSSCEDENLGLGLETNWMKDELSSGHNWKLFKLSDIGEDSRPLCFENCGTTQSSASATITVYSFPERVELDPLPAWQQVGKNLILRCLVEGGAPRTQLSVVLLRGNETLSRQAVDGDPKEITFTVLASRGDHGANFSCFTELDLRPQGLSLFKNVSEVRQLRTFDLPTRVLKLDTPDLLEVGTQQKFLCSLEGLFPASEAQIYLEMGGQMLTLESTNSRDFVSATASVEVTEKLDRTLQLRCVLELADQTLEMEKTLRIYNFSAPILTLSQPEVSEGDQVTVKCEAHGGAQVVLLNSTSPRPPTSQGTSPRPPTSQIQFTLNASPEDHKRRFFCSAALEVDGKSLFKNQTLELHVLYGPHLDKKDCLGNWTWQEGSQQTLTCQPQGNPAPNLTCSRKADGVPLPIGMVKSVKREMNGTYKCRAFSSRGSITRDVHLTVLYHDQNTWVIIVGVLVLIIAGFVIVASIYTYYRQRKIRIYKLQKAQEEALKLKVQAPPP
Method: Rat brain endothelial cells (SV-RBEC) were cultured on coverslips for 3 days in DMEM and 10% FBS. ICAM-1 expression was induced by adding 5 μg (1 mg/ml) of lipopolysaccharide (LPS; Sigma) overnight. Cells were then washed 3× with cold PBS, fixed with 3.7% formaldehyde for 20 min, washed again 3× in PBS at RT, and then blocked with 5% of normal goat serum/PBS for 1 h at RT. 25 μg anti-ICAM-1 IgG or 50 μg anti-ICAM-1 single domain antibodies (34-1, 11-4, 5-5) labelled with Cy5.5 (red) were incubated for 1 h at RT then washed 3× in PBS. The washed cells were incubated in 1:500 WGA-FITC/PBS for 1 min on ice, for membrane staining (green) then washed again 3× with PBS. Coverslips were then mounted in DAKO mounting medium containing 2 μg/ml of Hoechst for nuclear staining (blue).

T1 sequence (P05362 28-480 limits assumed): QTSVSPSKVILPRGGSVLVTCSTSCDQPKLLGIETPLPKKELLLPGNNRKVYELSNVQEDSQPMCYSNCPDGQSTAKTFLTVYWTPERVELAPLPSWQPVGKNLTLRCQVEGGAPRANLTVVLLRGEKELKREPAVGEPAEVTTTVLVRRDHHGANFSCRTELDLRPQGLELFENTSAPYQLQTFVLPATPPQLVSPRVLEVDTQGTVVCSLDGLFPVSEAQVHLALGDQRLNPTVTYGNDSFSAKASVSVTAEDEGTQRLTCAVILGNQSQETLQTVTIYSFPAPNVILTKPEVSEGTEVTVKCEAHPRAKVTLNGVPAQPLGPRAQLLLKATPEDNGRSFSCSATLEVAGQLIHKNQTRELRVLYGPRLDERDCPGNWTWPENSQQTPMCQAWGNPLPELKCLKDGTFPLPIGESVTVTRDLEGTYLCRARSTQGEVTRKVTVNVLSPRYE
T2 sequence (P13597 28-537): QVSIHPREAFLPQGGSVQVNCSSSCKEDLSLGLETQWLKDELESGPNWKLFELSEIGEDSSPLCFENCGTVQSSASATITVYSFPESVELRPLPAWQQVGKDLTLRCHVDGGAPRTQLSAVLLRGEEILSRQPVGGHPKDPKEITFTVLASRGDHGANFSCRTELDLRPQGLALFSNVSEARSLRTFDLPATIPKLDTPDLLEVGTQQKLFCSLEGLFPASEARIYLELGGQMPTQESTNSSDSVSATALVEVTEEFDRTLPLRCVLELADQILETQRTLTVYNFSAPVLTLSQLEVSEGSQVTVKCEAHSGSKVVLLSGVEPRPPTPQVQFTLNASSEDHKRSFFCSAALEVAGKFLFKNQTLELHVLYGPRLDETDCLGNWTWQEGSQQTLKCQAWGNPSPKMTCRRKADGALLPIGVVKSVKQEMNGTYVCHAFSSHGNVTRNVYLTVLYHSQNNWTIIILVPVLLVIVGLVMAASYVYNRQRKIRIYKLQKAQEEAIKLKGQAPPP

Binder | Kd [1] | koff [1] | kon [1] | binding result [2] | binding result [3]
anti-ICAM sdAb clone 5-5 (VHH, Soluble His6-tagged VHH expressed in E. coli from pSJF2, purified by IMAC, monomeric by SEC; also called llama sdAb clone 5-5) VHH: QVKLEESGGGLVQAGDSLRLSCAASGRTVNAFRMGWYRQAPGKQRERVAVITAGGTTSYIDSVKGRFTISRDNAKNTVYLQMNSLKPEDTAVYYCAAIDYDSRGQGTQVTVSS | 60 nM | 0.004 s⁻¹ | 70000 M⁻¹ s⁻¹ |  | 
anti-ICAM-1 sdAb clone 11-4 labelled with Cy5.5 (VHH, labelled with Cy5.5 succimidyl ester, dye/antibody ratio of two; labelled residues not stated, also called anti-ICAM-1 sdAb 11-4-Cy5.5; anti-ICAM-1 11-4 sdAb-Cy5.5) VHH: QVQLVESGGGLVQPGGSLRLSCAASGSISSLYVMGWYRQAPGKQRELVADITSSGSIYYVDSLKGRFTISRDNARSTVYLQMNSLEPEDTAVYYCMAHVRQDSGSEYLTYWGQGTQVTVSS |  |  |  | binds | binds
anti-ICAM-1 sdAb clone 5-5 labelled with Cy5.5 (VHH, labelled with Cy5.5 succimidyl ester, dye/antibody ratio of two; labelled residues not stated, Cy5.5 conjugate of m2) VHH: QVKLEESGGGLVQAGDSLRLSCAASGRTVNAFRMGWYRQAPGKQRERVAVITAGGTTSYIDSVKGRFTISRDNAKNTVYLQMNSLKPEDTAVYYCAAIDYDSRGQGTQVTVSS |  |  |  |  | binds
anti-ICAM-1 sdAb clone 34-1 labelled with Cy5.5 (VHH, labelled with Cy5.5 succimidyl ester, dye/antibody ratio of two; labelled residues not stated, Cy5.5 conjugate of m3) VHH: QVKLEESGGGLVQPGGSLRLSCAASGSIFSINDMGWYRQAPGKQRELVARITRDGSAAYEDSVKGRFTISRDNAPNTVFLQMNGLKPEDTAVYYCNAEIITTQTLGRMLGEYWGQGTQVTVSS |  |  |  |  | binds
anti-ICAM sdAb clone 11-4 (VHH, Soluble His6-tagged VHH expressed in E. coli from pSJF2, purified by IMAC, monomeric by SEC; also called llama sdAb clone 11-4; anti-ICAM-1 sdAb 11-4) VHH: QVQLVESGGGLVQPGGSLRLSCAASGSISSLYVMGWYRQAPGKQRELVADITSSGSIYYVDSLKGRFTISRDNARSTVYLQMNSLEPEDTAVYYCMAHVRQDSGSEYLTYWGQGTQVTVSS | 0.9 nM | 0.002 s⁻¹ | 2e+06 M⁻¹ s⁻¹ |  | 
anti-ICAM sdAb clone 34-1 (VHH, Soluble His6-tagged VHH expressed in E. coli from pSJF2, purified by IMAC, monomeric by SEC; also called llama sdAb clone 34-1) VHH: QVKLEESGGGLVQPGGSLRLSCAASGSIFSINDMGWYRQAPGKQRELVARITRDGSAAYEDSVKGRFTISRDNAPNTVFLQMNGLKPEDTAVYYCNAEIITTQTLGRMLGEYWGQGTQVTVSS | 10 nM | 0.002 s⁻¹ | 100000 M⁻¹ s⁻¹ |  | 
